Assays:
[1] = target: recombinant full-length neuroligin-3 (Origene) (mouse) (UniProt Q8BYM5); test: cell-based or functional assay
[2] = target: secreted neuroligin-3 in conditioned medium of optogenetically stimulated Thy1::ChR2 mouse cortical slices (mouse); test: cell-based or functional assay

Sequence of UniProt Q8BYM5 (Q8BYM5 35-825 limits assumed): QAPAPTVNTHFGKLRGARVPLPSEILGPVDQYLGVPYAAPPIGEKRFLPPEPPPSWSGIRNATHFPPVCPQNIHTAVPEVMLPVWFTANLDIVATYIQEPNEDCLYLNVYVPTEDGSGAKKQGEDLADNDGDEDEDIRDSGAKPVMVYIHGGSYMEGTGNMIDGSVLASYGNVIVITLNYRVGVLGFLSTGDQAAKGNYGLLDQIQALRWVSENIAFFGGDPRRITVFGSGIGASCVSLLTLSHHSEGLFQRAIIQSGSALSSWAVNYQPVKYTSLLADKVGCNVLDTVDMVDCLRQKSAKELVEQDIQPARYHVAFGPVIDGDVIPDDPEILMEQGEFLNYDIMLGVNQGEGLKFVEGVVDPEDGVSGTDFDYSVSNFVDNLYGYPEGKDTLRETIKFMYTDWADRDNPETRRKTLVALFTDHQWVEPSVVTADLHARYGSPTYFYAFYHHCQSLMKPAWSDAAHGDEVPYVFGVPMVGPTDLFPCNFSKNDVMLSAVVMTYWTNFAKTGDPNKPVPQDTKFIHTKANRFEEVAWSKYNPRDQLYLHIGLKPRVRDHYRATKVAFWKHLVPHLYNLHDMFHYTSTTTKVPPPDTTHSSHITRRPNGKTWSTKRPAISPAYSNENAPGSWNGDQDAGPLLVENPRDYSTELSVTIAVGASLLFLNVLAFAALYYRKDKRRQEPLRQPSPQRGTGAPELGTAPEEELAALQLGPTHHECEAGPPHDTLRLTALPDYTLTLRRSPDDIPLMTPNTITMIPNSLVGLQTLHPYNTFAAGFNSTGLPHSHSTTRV

neurexin-1β (recombinant, R&D Systems) (ligand)
proliferation index of pHGG (SU-pcGBM2) cells, EdU assay, 24 h [1]: 0.28 | proliferation index of pHGG (SU-pcGBM2) cells, EdU assay, 24 h [2]: 0.34

— patent publication US20160222100A1
